Reference: patent US20160200782A1 (MOERAE MATRIX, published 2016)

B1: MMI-0400 (peptide)
peptide: KAFAKLAARLYRKALARQLGVAA
B2: MMI-0300 (peptide)
peptide: FAKLAARLYRKALARQLGVAA

What was measured:
Assay in all cases: cell-based or functional assay
Met(Y1248H)(h) = Met(Y1248H)(h) (human, UniProt P08581-2 974-1408, limits assumed)
Lck(h) activated = Lck(h) activated (human, UniProt P06239 1-509, limits assumed)
PDGFRα(h) = PDGFRα(h) (human, UniProt P16234 550-1089, limits assumed)
FGFR1(V561M)(h) = FGFR1(V561M)(h) (human, UniProt P11362 456-765, limits assumed)
MSK2(h) = MSK2(h) (human, UniProt O75676 1-772, limits assumed)
TrkB(h) = TrkB(h) (human, UniProt Q16620 455-822, limits assumed)
FGFR2(h) = FGFR2(h) (human, UniProt P21802 456-770, limits assumed)
IRAK1(h) = IRAK1(h) (human, UniProt P51617 194-712, limits assumed)
TSSK2(h) = molecular target: T1, TSSK2(h) (human, UniProt Q96PF2 1-358)
T1 sequence (looked up): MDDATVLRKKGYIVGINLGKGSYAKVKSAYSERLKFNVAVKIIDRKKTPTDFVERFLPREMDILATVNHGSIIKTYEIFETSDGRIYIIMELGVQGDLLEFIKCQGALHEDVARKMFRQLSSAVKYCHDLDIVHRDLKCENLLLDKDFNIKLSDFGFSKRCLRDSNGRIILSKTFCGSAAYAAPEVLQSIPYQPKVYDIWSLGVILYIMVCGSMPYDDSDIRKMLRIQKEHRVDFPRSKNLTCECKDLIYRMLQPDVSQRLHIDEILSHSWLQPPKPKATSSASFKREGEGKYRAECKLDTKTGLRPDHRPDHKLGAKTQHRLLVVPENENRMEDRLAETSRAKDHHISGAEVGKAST

BrSK1(h) = molecular target: T2, BrSK1(h) (human, UniProt Q8TDC3 1-778, limits assumed)
T2 sequence (looked up): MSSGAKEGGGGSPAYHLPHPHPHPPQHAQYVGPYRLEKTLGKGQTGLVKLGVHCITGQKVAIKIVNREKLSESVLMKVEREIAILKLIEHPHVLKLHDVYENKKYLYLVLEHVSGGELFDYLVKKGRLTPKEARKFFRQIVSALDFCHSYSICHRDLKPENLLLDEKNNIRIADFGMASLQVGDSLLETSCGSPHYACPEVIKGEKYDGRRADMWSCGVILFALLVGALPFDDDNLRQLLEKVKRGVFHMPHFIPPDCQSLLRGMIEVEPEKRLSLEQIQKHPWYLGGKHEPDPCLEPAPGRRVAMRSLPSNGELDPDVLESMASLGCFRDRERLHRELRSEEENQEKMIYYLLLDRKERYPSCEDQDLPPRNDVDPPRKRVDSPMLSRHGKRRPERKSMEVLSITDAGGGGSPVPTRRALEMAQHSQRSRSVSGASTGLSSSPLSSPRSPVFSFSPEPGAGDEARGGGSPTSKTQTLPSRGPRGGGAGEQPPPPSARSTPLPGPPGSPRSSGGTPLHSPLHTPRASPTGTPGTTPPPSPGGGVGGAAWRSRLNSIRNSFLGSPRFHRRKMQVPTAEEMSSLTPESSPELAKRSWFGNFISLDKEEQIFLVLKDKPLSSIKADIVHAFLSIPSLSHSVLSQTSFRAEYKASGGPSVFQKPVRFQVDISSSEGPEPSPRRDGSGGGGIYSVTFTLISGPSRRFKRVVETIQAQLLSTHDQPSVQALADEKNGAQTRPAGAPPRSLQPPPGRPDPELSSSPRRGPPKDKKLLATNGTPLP

HIPK3(h) = HIPK3(h) (human, UniProt Q9H422 161-562, limits assumed)
FGFR4(h) = FGFR4(h) (human, UniProt P22455 460-802, limits assumed)
SAPK2a(h) = SAPK2a(h) (human, UniProt Q16539 1-360)
DYRK2(h) = molecular target: T3, DYRK2(h) (human, UniProt Q92630 1-601, limits assumed)
T3 sequence (looked up): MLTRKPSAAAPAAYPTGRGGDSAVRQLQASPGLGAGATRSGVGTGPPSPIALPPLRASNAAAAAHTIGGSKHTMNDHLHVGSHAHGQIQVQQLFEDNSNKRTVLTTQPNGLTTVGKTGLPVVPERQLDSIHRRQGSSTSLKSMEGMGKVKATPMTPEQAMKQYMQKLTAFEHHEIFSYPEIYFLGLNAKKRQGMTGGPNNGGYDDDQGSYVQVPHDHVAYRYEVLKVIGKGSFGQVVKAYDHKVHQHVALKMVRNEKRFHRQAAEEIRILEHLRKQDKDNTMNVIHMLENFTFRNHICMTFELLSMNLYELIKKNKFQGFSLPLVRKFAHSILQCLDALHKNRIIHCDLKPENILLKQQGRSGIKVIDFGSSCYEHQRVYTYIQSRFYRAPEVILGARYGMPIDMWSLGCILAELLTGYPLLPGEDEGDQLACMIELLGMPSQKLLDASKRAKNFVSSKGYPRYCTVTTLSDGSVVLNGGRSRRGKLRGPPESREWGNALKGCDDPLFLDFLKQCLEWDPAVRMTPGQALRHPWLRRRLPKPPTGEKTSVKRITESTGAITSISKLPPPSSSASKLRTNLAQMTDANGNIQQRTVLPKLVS

PKCγ(h) = PKCγ(h) (human, UniProt P05129 1-697)
Further: test concentration or dose not given here.

IRAK1(h), sequence (P51617 194-712 limits assumed): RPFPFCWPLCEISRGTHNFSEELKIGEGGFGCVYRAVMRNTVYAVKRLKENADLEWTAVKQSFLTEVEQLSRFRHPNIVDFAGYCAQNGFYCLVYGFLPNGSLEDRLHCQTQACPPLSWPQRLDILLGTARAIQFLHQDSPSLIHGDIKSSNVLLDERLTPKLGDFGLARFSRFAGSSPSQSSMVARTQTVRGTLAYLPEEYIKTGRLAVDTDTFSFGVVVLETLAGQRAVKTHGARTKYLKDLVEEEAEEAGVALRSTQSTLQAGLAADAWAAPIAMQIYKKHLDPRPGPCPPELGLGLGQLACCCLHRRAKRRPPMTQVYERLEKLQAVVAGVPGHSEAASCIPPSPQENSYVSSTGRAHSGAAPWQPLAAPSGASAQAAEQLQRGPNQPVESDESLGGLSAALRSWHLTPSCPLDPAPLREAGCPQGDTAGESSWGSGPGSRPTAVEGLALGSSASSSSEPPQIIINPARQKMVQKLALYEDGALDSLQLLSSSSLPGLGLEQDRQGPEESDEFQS
FGFR2(h), sequence (P21802 456-770 limits assumed): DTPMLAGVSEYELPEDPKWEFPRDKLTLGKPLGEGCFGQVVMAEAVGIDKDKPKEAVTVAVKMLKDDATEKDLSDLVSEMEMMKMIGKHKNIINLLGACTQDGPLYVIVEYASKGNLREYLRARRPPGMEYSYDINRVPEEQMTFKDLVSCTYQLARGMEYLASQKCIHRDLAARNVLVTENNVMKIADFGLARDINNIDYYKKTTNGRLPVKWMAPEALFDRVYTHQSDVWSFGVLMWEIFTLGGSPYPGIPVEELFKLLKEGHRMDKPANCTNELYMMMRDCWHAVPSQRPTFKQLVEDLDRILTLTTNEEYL
SAPK2a(h), sequence (Q16539 whole entry): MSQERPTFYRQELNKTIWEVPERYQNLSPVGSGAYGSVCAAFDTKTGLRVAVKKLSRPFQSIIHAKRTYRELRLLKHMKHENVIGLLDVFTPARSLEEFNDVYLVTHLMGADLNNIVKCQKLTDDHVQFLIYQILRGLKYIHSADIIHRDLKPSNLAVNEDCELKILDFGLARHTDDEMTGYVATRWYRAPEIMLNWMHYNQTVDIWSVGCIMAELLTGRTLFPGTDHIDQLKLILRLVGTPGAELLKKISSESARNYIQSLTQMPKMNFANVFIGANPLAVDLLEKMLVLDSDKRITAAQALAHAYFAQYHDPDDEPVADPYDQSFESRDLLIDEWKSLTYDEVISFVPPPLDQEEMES
Lck(h) activated, sequence (P06239 whole entry): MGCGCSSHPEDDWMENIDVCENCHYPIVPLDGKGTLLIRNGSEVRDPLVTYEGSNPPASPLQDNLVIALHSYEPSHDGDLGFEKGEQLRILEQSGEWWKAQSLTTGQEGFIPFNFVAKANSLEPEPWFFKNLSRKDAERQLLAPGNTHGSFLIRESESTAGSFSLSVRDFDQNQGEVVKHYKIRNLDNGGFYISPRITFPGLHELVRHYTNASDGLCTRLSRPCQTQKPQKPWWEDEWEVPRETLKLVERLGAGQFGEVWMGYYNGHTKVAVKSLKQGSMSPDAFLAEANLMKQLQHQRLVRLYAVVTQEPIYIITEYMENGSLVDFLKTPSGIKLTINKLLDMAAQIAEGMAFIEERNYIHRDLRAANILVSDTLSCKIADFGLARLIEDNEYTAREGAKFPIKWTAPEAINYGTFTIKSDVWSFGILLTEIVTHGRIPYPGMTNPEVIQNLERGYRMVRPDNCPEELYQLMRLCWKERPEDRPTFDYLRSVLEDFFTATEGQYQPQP
HIPK3(h), sequence (Q9H422 161-562 limits assumed): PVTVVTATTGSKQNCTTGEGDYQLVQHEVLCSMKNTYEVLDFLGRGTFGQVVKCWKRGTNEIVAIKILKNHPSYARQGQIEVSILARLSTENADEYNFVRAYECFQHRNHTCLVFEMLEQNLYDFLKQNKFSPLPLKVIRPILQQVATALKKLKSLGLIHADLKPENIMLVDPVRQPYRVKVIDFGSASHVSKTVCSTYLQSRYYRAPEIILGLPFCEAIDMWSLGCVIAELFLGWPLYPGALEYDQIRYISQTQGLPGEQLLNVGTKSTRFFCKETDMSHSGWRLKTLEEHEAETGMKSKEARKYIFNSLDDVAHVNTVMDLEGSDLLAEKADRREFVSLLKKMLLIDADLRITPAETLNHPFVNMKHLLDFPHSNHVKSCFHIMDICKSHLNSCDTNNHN
FGFR4(h), sequence (P22455 460-802 limits assumed): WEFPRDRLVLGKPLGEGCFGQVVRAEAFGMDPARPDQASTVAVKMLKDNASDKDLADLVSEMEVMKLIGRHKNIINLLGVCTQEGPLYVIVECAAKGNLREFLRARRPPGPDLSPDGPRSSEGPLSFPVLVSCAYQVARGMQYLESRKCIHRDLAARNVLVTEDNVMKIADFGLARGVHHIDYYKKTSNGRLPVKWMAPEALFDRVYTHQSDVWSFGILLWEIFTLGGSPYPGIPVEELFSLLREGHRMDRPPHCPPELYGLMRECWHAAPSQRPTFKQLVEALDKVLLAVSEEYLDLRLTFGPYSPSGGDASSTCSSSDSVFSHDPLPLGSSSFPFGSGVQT
TrkB(h), sequence (Q16620 455-822 limits assumed): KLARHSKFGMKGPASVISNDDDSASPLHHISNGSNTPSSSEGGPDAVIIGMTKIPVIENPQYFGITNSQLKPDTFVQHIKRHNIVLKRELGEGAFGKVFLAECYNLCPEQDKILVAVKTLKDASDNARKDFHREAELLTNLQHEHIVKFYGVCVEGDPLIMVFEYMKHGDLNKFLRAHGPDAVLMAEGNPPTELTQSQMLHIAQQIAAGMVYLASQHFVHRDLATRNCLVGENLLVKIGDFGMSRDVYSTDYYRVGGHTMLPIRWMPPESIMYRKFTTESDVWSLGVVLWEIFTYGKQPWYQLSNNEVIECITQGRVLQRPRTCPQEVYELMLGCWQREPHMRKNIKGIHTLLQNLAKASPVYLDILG
PDGFRα(h), sequence (P16234 550-1089 limits assumed): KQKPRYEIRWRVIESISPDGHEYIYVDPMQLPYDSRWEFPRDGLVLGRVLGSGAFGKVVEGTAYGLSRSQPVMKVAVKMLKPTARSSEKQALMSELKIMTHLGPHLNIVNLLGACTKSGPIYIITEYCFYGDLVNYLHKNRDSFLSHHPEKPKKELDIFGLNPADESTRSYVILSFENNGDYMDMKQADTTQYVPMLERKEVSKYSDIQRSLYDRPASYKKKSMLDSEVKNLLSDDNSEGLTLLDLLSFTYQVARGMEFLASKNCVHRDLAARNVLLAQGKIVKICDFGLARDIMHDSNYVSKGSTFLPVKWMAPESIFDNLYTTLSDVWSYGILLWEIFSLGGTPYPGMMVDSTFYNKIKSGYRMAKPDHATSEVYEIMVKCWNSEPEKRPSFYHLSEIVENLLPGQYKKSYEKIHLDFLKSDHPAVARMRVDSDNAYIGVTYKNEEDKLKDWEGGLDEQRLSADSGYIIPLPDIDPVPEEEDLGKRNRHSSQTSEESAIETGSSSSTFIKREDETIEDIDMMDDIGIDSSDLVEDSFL
MSK2(h), sequence (O75676 whole entry): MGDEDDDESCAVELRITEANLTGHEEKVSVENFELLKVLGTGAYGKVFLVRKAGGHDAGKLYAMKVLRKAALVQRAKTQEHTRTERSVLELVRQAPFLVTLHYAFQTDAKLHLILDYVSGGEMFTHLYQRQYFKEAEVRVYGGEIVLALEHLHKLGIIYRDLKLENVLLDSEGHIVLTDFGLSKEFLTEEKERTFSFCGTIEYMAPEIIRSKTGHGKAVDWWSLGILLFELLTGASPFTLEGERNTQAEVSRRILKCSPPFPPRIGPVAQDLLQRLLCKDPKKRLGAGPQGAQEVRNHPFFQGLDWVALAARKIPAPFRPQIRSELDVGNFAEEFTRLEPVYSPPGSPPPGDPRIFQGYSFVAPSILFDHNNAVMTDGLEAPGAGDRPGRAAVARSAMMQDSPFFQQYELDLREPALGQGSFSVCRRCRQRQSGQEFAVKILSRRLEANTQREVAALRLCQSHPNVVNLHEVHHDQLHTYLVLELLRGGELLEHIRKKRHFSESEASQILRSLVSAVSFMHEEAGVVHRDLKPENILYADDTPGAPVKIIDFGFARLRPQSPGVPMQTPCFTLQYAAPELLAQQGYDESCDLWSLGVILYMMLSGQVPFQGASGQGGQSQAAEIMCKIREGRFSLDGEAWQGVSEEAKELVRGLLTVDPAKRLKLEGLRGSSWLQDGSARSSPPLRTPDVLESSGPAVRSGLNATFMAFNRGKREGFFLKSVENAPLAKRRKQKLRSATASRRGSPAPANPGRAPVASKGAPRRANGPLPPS

Binder	% activity (Met(Y1248H)(h))	% activity (Lck(h) activated)	% activity (PDGFRα(h))	% activity (FGFR1(V561M)(h))	% activity (MSK2(h))	% activity (TrkB(h))	% activity (FGFR2(h))	% activity (IRAK1(h))	% activity (TSSK2(h))	% activity (BrSK1(h))	% activity (HIPK3(h))	% activity (FGFR4(h))	% activity (SAPK2a(h))	% activity (DYRK2(h))	% activity (PKCγ(h))
B1	63%	216%	40%	74%	52%	8%	18%	93%	94%	76%	105%	19%	85%	195%	79%
B2	117%	243%	65%	74%	56%	5%	14%	95%	98%	67%	93%	28%	90%	155%	89%
